Measured values: paper PMC6232587, “Human RNA cap1 methyltransferase CMTr1 cooperates with RNA helicase DHX15 to modify RNAs with highly structured 5′ termini” (Philosophical Transactions of the Royal Society B: …, 2018)

B1: Recombinant DHX15 with His-tag (enzyme, human, UniProt O43143 1-795, looked up)
chain: MSKRHRLDLGEDYPSGKKRAGTDGKDRDRDRDREDRSKDRDRERDRGDREREREKEKEKELRASTNAMLISAGLPPLKASHSAHSTHSAHSTHSTHSAHSTHAGHAGHTSLPQCINPFTNLPHTPRYYDILKKRLQLPVWEYKDRFTDILVRHQSFVLVGETGSGKTTQIPQWCVEYMRSLPGPKRGVACTQPRRVAAMSVAQRVADEMDVMLGQEVGYSIRFEDCSSAKTILKYMTDGMLLREAMNDPLLERYGVIILDEAHERTLATDILMGVLKEVVRQRSDLKVIVMSATLDAGKFQIYFDNCPLLTIPGRTHPVEIFYTPEPERDYLEAAIRTVIQIHMCEEEEGDLLLFLTGQEEIDEACKRIKREVDDLGPEVGDIKIIPLYSTLPPQQQQRIFEPPPPKKQNGAIGRKVVVSTNIAETSLTIDGVVFVIDPGFAKQKVYNPRIRVESLLVTAISKASAQQRAGRAGRTRPGKCFRLYTEKAYKTEMQDNTYPEILRSNLGSVVLQLKKLGIDDLVHFDFMDPPAPETLMRALELLNYLAALNDDGDLTELGSMMAEFPLDPQLAKMVIASCDYNCSNEVLSITAMLSVPQCFVRPTEAKKAADEAKMRFAHIDGDHLTLLNVYHAFKQNHESVQWCYDNFINYRSLMSADNVRQQLSRIMDRFNLPRRSTDFTSRDYYINIRKALVTGYFMQVAHLERTGHYLTVKDNQVVQLHPSTVLDHKPEWVLYNEFVLTTKNYIRTCTDIKPEWLVKIAPQYYDMSNFPQCEAKRQLDRIIAKLQSKEYSQY
notes: ATP-dependent RNA helicase DHX15, human, from the full-length cDNA, cloned into pET28; The cloning paragraph says C-terminal His-tag; also called His-DHX15; DHX15 helicase; not shown: His-tag, C-terminal, kept
B2: CMTr1 full-length, purified from insect cells (enzyme, human, UniProt Q8N1G2 1-835, looked up)
chain: MKRRTDPECTAPIKKQKKRVAELALSLSSTSDDEPPSSVSHGAKASTTSLSGSDSETEGKQHSSDSFDDAFKADSLVEGTSSRYSMYNSVSQKLMAKMGFREGEGLGKYSQGRKDIVEASSQKGRRGLGLTLRGFDQELNVDWRDEPEPSACEQVSWFPECTTEIPDTQEMSDWMVVGKRKMIIEDETEFCGEELLHSVLQCKSVFDVLDGEEMRRARTRANPYEMIRGVFFLNRAAMKMANMDFVFDRMFTNPRDSYGKPLVKDREAELLYFADVCAGPGGFSEYVLWRKKWHAKGFGMTLKGPNDFKLEDFYSASSELFEPYYGEGGIDGDGDITRPENISAFRNFVLDNTDRKGVHFLMADGGFSVEGQENLQEILSKQLLLCQFLMALSIVRTGGHFICKTFDLFTPFSVGLVYLLYCCFERVCLFKPITSRPANSERYVVCKGLKVGIDDVRDYLFAVNIKLNQLRNTDSDVNLVVPLEVIKGDHEFTDYMIRSNESHCSLQIKALAKIHAFVQDTTLSEPRQAEIRKECLRLWGIPDQARVAPSSSDPKSKFFELIQGTEIDIFSYKPTLLTSKTLEKIRPVFDYRCMVSGSEQKFLIGLGKSQIYTWDGRQSDRWIKLDLKTELPRDTLLSVEIVHELKGEGKAQRKISAIHILDVLVLNGTDVREQHFNQRIQLAEKFVKAVSKPSRPDMNPIRVKEVYRLEEMEKIFVRLEMKIIKGSSGTPKLSYTGRDDRHFVPMGLYIVRTVNEPWTMGFSKSFKKKFFYNKKTKDSTFDLPADSIAPFHICYYGRLFWEWGDGIRVHDSQKPQDQDKLSKEDVLSFIQMHRA

Assays:
[1] = target: B2; test: pull-down; purified His-DHX15 and CMTr1 mixed in BDHX buffer (20 mM Tris-HCl pH 8, 70 mM KCl, 3 mM MgCl2, 5 mM DTT, 100 µM ATP), on ice for 10 min; complexes captured on nickel-charged agarose beads; conditions: both partners purified
[2] = target: B1; test: cell-based or functional assay

| Binder | binding result [1] | CMTr1 methyltransferase activity towards RNA92 and RNA68 substrates with equimolar DHX15, in comparison with CMTr1 alone [2] [fold] |
| --- | --- | --- |
| B1 | binds |  |
| B2 |  | > 3 |
